Test results reported in publication PMC11047111 (Proceedings of the National Academy of Sciences of the …, 2024).

Legend:
SEC = target: the molecule itself; assay: SEC
[1] = target: CUL3^NTD (N-terminal domain of cullin 3, residues 1 to 381) (UniProt Q13618 1-381); assay: BLI
Chain of CUL3^NTD (N-terminal domain of cullin 3, residues 1 to 381) (Q13618 1-381): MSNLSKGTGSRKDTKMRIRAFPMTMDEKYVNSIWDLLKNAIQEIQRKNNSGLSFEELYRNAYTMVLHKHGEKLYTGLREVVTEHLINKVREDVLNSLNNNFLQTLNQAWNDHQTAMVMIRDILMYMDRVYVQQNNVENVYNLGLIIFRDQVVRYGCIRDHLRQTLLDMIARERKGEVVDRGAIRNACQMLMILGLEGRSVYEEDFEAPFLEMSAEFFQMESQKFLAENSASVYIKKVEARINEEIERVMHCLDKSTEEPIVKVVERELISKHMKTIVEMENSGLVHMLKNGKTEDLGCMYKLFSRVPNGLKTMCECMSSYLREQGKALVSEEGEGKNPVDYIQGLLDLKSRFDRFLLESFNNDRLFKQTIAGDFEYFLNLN

B1: KCTD5 (natural protein)
chain: MAENHCELLSPARGGIGAGLGGGLCRRCSAGLGALAQRPGSVSKWVRLNVGGTYFLTTRQTLCRDPKSFLYRLCQADPDLDSDKDETGAYLIDRDPTYFGPVLNYLRHGKLVINKDLAEEGVLEEAEFYNITSLIKLVKDKIRERDSKTSQVPVKHVYRVLQCQEEELTQMVSTMSDGWKFEQLVSIGSSYNYGNEDQAEFLCVVSKELHNTPYGTASEPSEKAKILQERGSRM
stoichiometry N (SEC): 5

B2: KCTD5 L161R (natural protein)
chain: MAENHCELLSPARGGIGAGLGGGLCRRCSAGLGALAQRPGSVSKWVRLNVGGTYFLTTRQTLCRDPKSFLYRLCQADPDLDSDKDETGAYLIDRDPTYFGPVLNYLRHGKLVINKDLAEEGVLEEAEFYNITSLIKLVKDKIRERDSKTSQVPVKHVYRVRQCQEEELTQMVSTMSDGWKFEQLVSIGSSYNYGNEDQAEFLCVVSKELHNTPYGTASEPSEKAKILQERGSRM
binding result [1]: binds
